In the RNAGym collection of RNA variant scans (doi:10.7554/elife.80360):

B1: Hairpin Ribozyme (parent)
chain: GUCCUCUUUCACGUGCGCGUGAAAGAGAGAAGUGAACCAGAGAAACACACGUUGUGGUAUAUUACCUGGUA

Variants of: B1
Test: self-cleavage, relative activity (ratio to wild type); higher = more cleavage; co-transcriptional

Variant	self-cleavage
GUCCUCUUUCACGUGCGGGUGAAAGAGAGAAGUGAACCAGAGAAACACACGUUGAGGUAUAUUACCUGGUA	0.145
GUCCUCUUUCACGUGCGGGUGAAAGAGAGAAGUGAACCAGAGAAACACACGUUGCGGUAUAUUACCUGGUA	0.233
GUCCUCUUUCACGUGCGUGUGAAAGAGAGAAGUGAACCAGAGAAACGCACGUUGUGGUAUAUUACCUGGUA	0.15
GUCCUCUUUCACGUGCGGGUGAAAGAGAGAAGUGAACCAGAGAGACACACGUUGUGGUAUAUUACCUGGUA	0.113
GUCCUCUUUCACGUGCGGGUGAAAGAGAGAAGUGAACCAGAGAAACACACGUUGUGGUAUAUGACCUGGUA	0.27
GUCCUCUUUCACGUGCGGGUGAAAGAGAGAAGUGAACCAGAGAAACACACGUUGUGGUAUAUCACCUGGUA	0.276
GUCCUCUUUCACGUGCGUGUGAAAGAGAGAAGUGAACCAGAGCAACACACGUUGUGGUAUAUUACCUGGUA	0.164
GUCCUCUUUCACGUGCGUGUGAAAGAGAGAAGUGAACCAGAGAAGCACACGUUGUGGUAUAUUACCUGGUA	0.174
GUCCUCUUUCACGUGCGUGUGAAAGAGAGAAGUGAACCAGAGAAUCACACGUUGUGGUAUAUUACCUGGUA	0.109
GUCCUCUUUCACGUGCGGGUGAAAGAGAGAAGUGAACCAGAGAAACACACGUUGUUGUAUAUUACCUGGUA	0.2
GUCCUCUUUCACGUGCGGGUGAAAGAGAGAAGUGAACCACAGAAACACACGUUGUGGUAUAUUACCUGGUA	0.0865
GUCCUCUUUCACGUGCGGGUGAAAGAGAGAAGUGAACCAUAGAAACACACGUUGUGGUAUAUUACCUGGUA	0.187
GUCCUCUUUCACGUGCGUGUGGAAGAGAGAAGUGAACCAGAGAAACACACGUUGUGGUAUAUUACCUGGUA	0.784
GUCCUCUUUCACGUGCGUGUGCAAGAGAGAAGUGAACCAGAGAAACACACGUUGUGGUAUAUUACCUGGUA	0.949
GUCCUCUUUCACGUGCGUGUGUAAGAGAGAAGUGAACCAGAGAAACACACGUUGUGGUAUAUUACCUGGUA	1.1
GUCCUCUUUCACGUGCGUGUGAAUGAGAGAAGUGAACCAGAGAAACACACGUUGUGGUAUAUUACCUGGUA	0.844
GUCCUCUUUCACGUGCGUGUGAAGGAGAGAAGUGAACCAGAGAAACACACGUUGUGGUAUAUUACCUGGUA	1.04
GUCCUCUUUCACGUGCGGGUGAAAGAGAGAAGUGAACCAGAGAAACACACGUUGUGGUAUAUUACCUGUUA	0.162
GUCCUCUUUCACGUGCGGGUGAAAGAGAGAAGUGAACCAGAGAAACACACGUUGUGCUAUAUUACCUGGUA	0.194

Variant	self-cleavage
GUCCUCUUUCACGUGCGGAUGAAAGAGAGAAGUGAACCAGAGAAACACACGUUGUGGUAUAUUACCUGGUA	0.907
GUCCUCUUUCACGUGCGGUUGAAAGAGAGAAGUGAACCAGAGAAACACACGUUGUGGUAUAUUACCUGGUA	0.88
GUCCUCUUUCACGUGCGGGUGAAAGAGAGAAGUGAACCAGAGAAACACACGUUGUGGUAUAUUACCUGGGA	0.537
GUCCUCUUUCACGUGCGGGGGAAAGAGAGAAGUGAACCAGAGAAACACACGUUGUGGUAUAUUACCUGGUA	0.724
GUCCUCUUUCACGUGCGGGUGAAAGAGAGAAGGGAACCAGAGAAACACACGUUGUGGUAUAUUACCUGGUA	0.123
GUCCUCUUUCACGUGCGGGUGAAAGAGAGAAGCGAACCAGAGAAACACACGUUGUGGUAUAUUACCUGGUA	0.164
GUCCUCUUUCACGUGCGUUUGAAAGAGAGAAGUGAACCAGAGAAACACACGUUGUGGUAUAUUACCUGGUA	1.1
GUCCUCUUUCACGUGCGUGUGAAAGAGAGUAGUGAACCAGAGAAACACACGUUGUGGUAUAUUACCUGGUA	0.203
GUCCUCUUUCACGUGCGGGUGAAAGAAAGAAGUGAACCAGAGAAACACACGUUGUGGUAUAUUACCUGGUA	0.407
GUCCUCUUUCACGUGCGGGUGAAAGAGAGAAGUGAACUAGAGAAACACACGUUGUGGUAUAUUACCUGGUA	0.44
GUCCUCUUUCACGUGCGUGUGAAAGAGAGAAGUGUACCAGAGAAACACACGUUGUGGUAUAUUACCUGGUA	0.802
GUCCUCUUUCACGUGCGGGUGAAAGAGACAAGUGAACCAGAGAAACACACGUUGUGGUAUAUUACCUGGUA	0.133
GUCCUCUUUCACGUGCGGGUGAAAGAGAGAAGUGAACCAGAGAAACACACCUUGUGGUAUAUUACCUGGUA	1.01
GUCCUCUUUCACGUGCGUGUGAAAGAGAGAAGUGAACUAGAGAAACACACGUUGUGGUAUAUUACCUGGUA	0.529
GUCCUCUUUCACGUGCGGGUGAAAGAGAGAAGUGAACCAGAGAAACACACGUUGUGGUAUAUUAACUGGUA	0.871
GUCCUCUUUCACGUGCGGGUGAAAGAGAGAAGUGAACCAGAGAAACACACGUUGUGGUAUAUUAUCUGGUA	0.213
GUCCUCUUUCACGUGCGUGUGAUAGAGAGAAGUGAACCAGAGAAACACACGUUGUGGUAUAUUACCUGGUA	0.997
GUCCUCUUUCACGUGCGUGUGACAGAGAGAAGUGAACCAGAGAAACACACGUUGUGGUAUAUUACCUGGUA	0.898
GUCCUCUUUCACGUGCGGGUGAAAGAGAGAAGUGAACCAGAGAAACACAUGUUGUGGUAUAUUACCUGGUA	0.24
